Assay results published in the RNAGym collection of RNA variant scans (doi:10.1073/pnas.2313332121).

B1: TPR t1 (parent)
chain: GACCAAUCUGCCCUCAGAGCUCGAGAACAUCUUCGGAUGCAGAGGAGGCAGGCUUCGGUGGCGCGAUAGCGCCAACGUCCUCAACCUCCAAUGCAUCCCACCACAUGAUGAUGCCUGAAGAGCCUUGGUUUUUUG

Variants of: B1
Assay: polymerase ribozyme fitness, log enrichment relative to wild type (log ratio); higher = more active; in vitro selection for triplet polymerase activity
Summary of the method: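 Mutant libraries were PCR-built and transcribed for each subunit of a heterodimeric triplet polymerase ribozyme and selected for one round in triplicate at −7 °C, frozen, before gel excision of extended constructs and streptavidin-bead capture. Input and output libraries were Illumina-sequenced, keeping genotypes with ≥10 input reads and ≥1 read per output. Fitness is a logarithmic ratio of genotype to wild-type enrichment, in base 2, using inverse-variance-weighted replicate averages.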

Row | Variant | polymerase ribozyme fitness (log ratio)
1 | A50C C73A A74U | -1.27
2 | C49G A83G C124G | 1.03
3 | G48C U78A | -0.274
4 | A50U G52C G77U U130C | -3.17
5 | C49U G60C A103C U112A C123G | -4.76
6 | A50U G69A | -3.65
7 | C49A G113A | -0.955
8 | G48C U116G | -3.09
9 | C49A U92G G117U C123U | -6.98
10 | G48U C88A A91C | -2.5
11 | C49G U129C | -0.4
12 | C49G C94G | -1.92
13 | C49U A84U C88A | -1.82
14 | A50G U55C C88U G107C U112G C123G | -5.21
15 | G48U C62G | -3.39
16 | G48U C62A | -1.81
17 | C49U G77A A90U A91G C102A | -6.02
18 | A50G C72G C79A U132C | -1.72
19 | C49A C64U U129C U133C | -0.175
20 | G48U C62U A84C C115A | -1.79
21 | C49U A75U C79U U116A U130C | -4.3
22 | C49G G60C C86U | -0.802
23 | C49A C72U U109C U112A A121C | -6.03
24 | G48A U96A C104U U131A | -1.66

Row | Variant | polymerase ribozyme fitness (log ratio)
25 | C49A C79G A103G U112G C114U U116C | -7.2
26 | G48C | -0.943
27 | G48U | -0.903
28 | C49U C64A U81A G93U C114G C123U | -6.8
29 | G48C C72G | -0.77
30 | C49U G77U C123G | 0.718
31 | C49A A103C | -5.44
32 | C49A U96C G120U | -0.575
33 | C49G C70U A84G U126G U129G G135C | -4.25
34 | G48A U106C | 0.21
35 | A50C C62G | -2.66
36 | A50C C62A | -2.99
37 | G51A C64A | -6.96
38 | A50U U59C | -0.6
39 | C49U A90G | 0.52
40 | A50C G113U | -3.73
41 | C49U G107A G120C U130G | -6.54
42 | G48U G58U G60U C82G | 0.276
43 | A50G C88G G120A C124U U126C | 0.11
44 | A50C C94U | -0.435
45 | A50U C80A G122A G127C U129C | -5.15
46 | G48U G107U A111C C123A | -5.41
47 | G48U U92A | -3.38
48 | G48C C49A C56U G93U | -1.8

Row | Variant | polymerase ribozyme fitness (log ratio)
49 | C49A G69U U81A C89A G93U C115G C123G | -2.93
50 | A50C G117C | -3.5
51 | G48U C72U C73A G127A G135C | -1.64
52 | A50G A74U A91C | -2.03
53 | G48U G69U G135A | -1.62
54 | C49A C102A A121U G122U U133C | -0.655
55 | C49G U125A | -0.51
56 | A50G U112C U116A | -0.435
57 | G51A U96A | -4.59
58 | G48C C56U C101A U112C G135C | -0.346
59 | C49U A50U C82U | -1.71
60 | G48C C70U | -0.829
61 | C49U U54G U59A C79U C101A G113U | -5.96
62 | C49U A50C A111G | 0.0314
63 | G51A C101U G117A | -4.58
64 | G48U G117C | -4.06
65 | A50C G71A U133C | -0.939
66 | A50U C88A G110A | -3.66
67 | C49A U78A G117C G128A U131C U133G | -6.98
68 | A50G G117A | -1.18
69 | C49G C79A | -3.75
70 | C49G C89A | -2.67
71 | A50G C53U G61C A90G G113A | -1.82
72 | C49G C88U C94U | -0.799

Row | Variant | polymerase ribozyme fitness (log ratio)
73 | G48A U59C C82A G93C U116G U131A | -4.51
74 | A50U G61C C88U G113C | -5.11
75 | C49U A66G G120C C123G | -1.48
76 | C49U C53A C104U | -0.231
77 | A50U C64U | -0.813
78 | C49U C76G | -0.454
79 | G51A C86U U87A G113C | -6.8
80 | C49G C70A G110A A121C | -4.74
81 | G48U G93A | -0.946
82 | G48U C82U | -1.32
83 | C49A A91C C97G C99U G113A | -7.59
84 | C49U C104U C124A | 1.02
85 | G48C G77A U130G | -2.05
86 | G48U U55G G61U | -0.0419
87 | G48U G110U | -2.84
88 | A50C G61U C79A | -2.63
89 | G48A U54G C85U | -0.681
90 | C49A C53A U116C | -1.16
91 | A50U G60A G93A | -1.39
92 | A50G C99U G110C | -7.74
93 | C49U C73U | -0.609
94 | G51A U87A C101A | -4.9
95 | C49U C56U C72G C101G | -3.7
96 | C49G G69A A100C C101U | -5.56

Row | Variant | polymerase ribozyme fitness (log ratio)
97 | C49U G52U C56U G77U C101A | -2.69
98 | G48C C85U G117U | -3.32
99 | C49A C94U | 0.159
100 | C49U U106G | -2.35
101 | C49A C85A G93C U106A | -1.01
102 | C49A U112A G127C | -0.179
103 | G48A G127C | -2.52
104 | C49U G93A | -1.33
105 | G51A C85U | -3.77
106 | G48U C99U | -3.34
107 | G48A U92A U106A | -3.9
108 | A50C C72A | 0.00514
109 | G51A U106A | -2.35
110 | G48C C72G C104A G120C G128A | -4.3
111 | A50U G61U C86U | -1.34
112 | G48U U59A U116C C124U | -0.336
113 | G48C A83G G122U | -1.4
114 | G48U G63U C72U C86A A91C | -5.91
115 | A50U G93A | -1.21
116 | G48U U87G C115G | -0.14
117 | G48U U96C U116A A121U | -1.06
118 | G48C C49A U55C G61A A95G G110A | -2.85
119 | C49G U106G U116C | -4.97
120 | A50U G117C G120C | -5.84

Row | Variant | polymerase ribozyme fitness (log ratio)
121 | C49A U54A C56U U112C | 1.59
122 | A50G U55A G69A | -2.85
123 | G51A C99U | -7.64
124 | A50U C62U C80U A84G A95U | -6.37
125 | G48C A83U U87A | -0.806
126 | C49G G63U | -2.09
127 | A50G A91C | -1.05
128 | C49G C62G C114A G117C | -7.8
129 | G48A U132A | -0.715
130 | A50C C115A U132C | -0.367
131 | C49A C56A U130C | -0.746
132 | C49G G51A U54G | -4.1
133 | C49G G69C | -1.79
134 | C49A A50C | -0.838
135 | C49A C73A G93U | -1.28
136 | G51A U54G C73G C98U | -5.39
137 | C49U C104A | -2.12
138 | G51A G113C G122U G135U | -7.38
139 | G48C C79A | -3.15
140 | G48U C49G G63U | -1.73
141 | G48C C56A C72A U78A | -1.06
142 | C49G C53A U59G C72U C86U U132A | -0.782
143 | G48C A95G U129C | -1.6
144 | A50G C85A | -2.34

Row | Variant | polymerase ribozyme fitness (log ratio)
145 | G51A G65C C114G | -6.09
146 | C49G G60U U78C C97A | -5.83
147 | C49A G52C U96C | -0.622
148 | C49A A83C | -1.24
149 | A50U G69U U81C C114A | -2.1
150 | A50U A84C U125A | -1.62
151 | C49A U131C | -0.0361
152 | A50G C86A C115G | -2.42
153 | C49G U109C | -4.72
154 | C49U U81C A95G C102G G110U G135U | -7.51
155 | C49G G107A | -6.49
156 | G51A G60A | -1.34
157 | C49G G63C C80U U112A C124U | -5.99
158 | C49A G71U U78A G120C | 0.393
159 | C49A A66C U87A | -1.04
160 | G51A U81C C97U C115G | -5.02
161 | C49A C82A | -1.17
162 | A50U C56A C82G U87G G117A U132A | -4.26
163 | G48U A50G G58C G117U G122A | -4.46
164 | G48U C89A | -1.52
165 | G51A C53A U133A | -2.17
166 | A50G U87G | 0.406
167 | G48U C62G A91U C123U U125A | -5.93
